{"source": "paper PMC12262736", "key": {"[1]": {"target": "LiaS (Enterococcus faecalis)", "test": "MST"}, "[2]": {"target": "MadS (Enterococcus faecalis)", "test": "MST"}}, "data": [{"substance": "LiaR (natural protein)", "values": [{"measurement": "Kd", "setting": "[1]", "value": 2.42, "unit": "µM"}, {"measurement": "Kd", "setting": "[2]", "value": 25.7, "unit": "µM"}]}, {"substance": "MadR (natural protein)", "values": [{"measurement": "Kd", "setting": "[1]", "value": 5.02, "unit": "µM"}, {"measurement": "Kd", "setting": "[2]", "value": 8.08, "unit": "µM"}]}]}
